Laboratory results: publication PMC12389326, “The Impact of the Injected Mass of the Gastrin-Releasing Peptide Receptor Antagonist on Uptake in Breast Cancer: Lessons from a Phase I Trial of [^99mTc]Tc-DB8” (Pharmaceutics, 2025)

Experiments:
[1] = design: species or system human; conditions: in vivo
Procedure: (§1) Dosimetry was evaluated as described in [44]. Briefly, regions of interest (ROI) were drawn over organs of interest and over the whole body on the anterior and posterior whole-body images of patients injected with [^99mTc]Tc-DB8; a geometric mean of counts at 2, 4, 6, and 24 h was calculated for each ROI. To assess elimination kinetics in blood, a ROI was placed over the heart. For quantification, a known activity of Tc-99m in a water-filled phantom in combination with Chang’s correction was used. Data were fitted by single exponential functions and residence time was calculated as areas under fitted curves using GraphPad Prism 8.0 (GraphPad Software, San Diego, CA, USA). Absorbed doses were calculated by OLINDA/EXM 1.1 using Adult Female phantom.

[2] = clinical; design: species or system human; conditions: in vivo; for tissue uptake dose at 4 h / tissue uptake dose at 6 h / tissue uptake dose at 24 h / tissue uptake dose at 2 h: human, SD
Procedure: Imaging was performed using a Siemens Symbia Intevo Bold scanner equipped with a high-resolution, low-energy collimator. Anterior and posterior planar whole-body imaging (at a scan speed of 12 cm/min, 1024 × 256 pixel matrix) was performed at 2, 4, 6, and 24 h after injection of [^99mTc]Tc-DB8. SPECT/CT scans (SPECT: 60 projections, 20 s each, stored in 256 × 256 pixel matrix/CT: 130 kV, effective 36 mAs) covering the area from the neck to liver were performed 2, 4, and 6 h after injection of [^99mTc]Tc-DB8. SPECT images were reconstructed using xSPECT (Siemens) protocol based on the ordered subset conjugate gradient (OSCG) method (24 iterations, 2 subsets) with a 3D Gaussian FWHM 10 mm filter (Soft Tissue). The images were processed using the proprietary software package Syngo.via Workstation (Siemens Healthineers).
as §1

[3] = cited from earlier work
Procedure: The injected activities were selected to enable good counting statistics, permitting accurate dosimetry calculations up to 24 h after injection. […] Considering that the clear SPECT visualization was already observed 2 h after injection, the injected activ ...

[4] = 40 ug, Uptake in Liver (decay-corrected)
[5] = 40 ug, Uptake in Lungs (decay-corrected)
[6] = 40 ug, Uptake in Pancreas (decay-corrected)
[7] = 40 ug, total radioactivity, Uptake in Breast (decay-corrected)
[8] = 40 ug, total radioactivity, Uptake in Kidney (decay-corrected)
[9] = 40 ug, total radioactivity, Uptake in Small Intestine (decay-corrected)
[10] = 80 ug, Uptake in Liver (decay-corrected)
[11] = 80 ug, Uptake in Lungs (decay-corrected)
[12] = 80 ug, Uptake in Pancreas (decay-corrected)
[13] = 80 ug, total radioactivity, Uptake in Breast (decay-corrected)
[14] = 80 ug, total radioactivity, Uptake in Kidney (decay-corrected)
[15] = 80 ug, total radioactivity, Uptake in Small Intestine (decay-corrected)
[16] = 120 ug, Uptake in Liver (decay-corrected)
[17] = 120 ug, Uptake in Lungs (decay-corrected)
[18] = 120 ug, Uptake in Pancreas (decay-corrected)
[19] = 120 ug, total radioactivity, Uptake in Breast (decay-corrected)
[20] = 120 ug, total radioactivity, Uptake in Kidney (decay-corrected)
[21] = 120 ug, total radioactivity, Uptake in Small Intestine (decay-corrected)

With `CCNC(=O)[C@H](CC(C)C)NC(=O)[C@H](Cc1c[nH]cn1)NC(=O)CNC(=O)[C@@H](NC(=O)[C@H](C)NC(=O)[C@H](Cc1c[nH]c2ccccc12)NC(=O)[C@H](CCC(N)=O)NC(=O)[C@@H](Cc1ccccc1)NC(=O)COCC(=O)Nc1ccc(CNC(=O)C(CNCCN)CNCCN)cc1)C(C)C` [[^99mTc]Tc-DB8, metal not drawn] the “Absorbed dose, Urinary bladder wall” value [1] was 0.02 ± 0.01 mGy/MBq, the Absorbed equivalent dose [1] was 4.6 mSv and the Effective dose [1] was 0.009–0.014 mSv/MBq. For the same compound, the tissue uptake dose at 4 h [2, 4] was 2.1 ± 1.1 %ID, the tissue uptake dose at 6 h [2, 4] was 1.6 ± 0.8 %ID and the tissue uptake dose at 24 h [2, 4] was 0.8 ± 0.4 %ID. For the same compound, the tissue uptake dose at 2 h [2, 5] was 3.8 ± 0.5 %ID, the tissue uptake dose at 4 h [2, 5] was 2.3 ± 0.3 %ID and the tissue uptake dose at 6 h [2, 5] was 1.6 ± 0.2 %ID. The tissue uptake dose at 24 h [2, 5] was 0.7 ± 0.1 %ID, the tissue uptake dose at 2 h [2, 6] was 1.5 ± 0.5 %ID and the tissue uptake dose at 4 h [2, 6] was 0.9 ± 0.4 %ID. For the same compound, the tissue uptake dose at 6 h [2, 6] was 0.7 ± 0.3 %ID, the tissue uptake dose at 24 h [2, 6] was 0.35 ± 0.09 %ID and the tissue uptake dose at 2 h [2, 7] was 4.2 ± 1.1 %ID. For the same compound, the tissue uptake dose at 4 h [2, 7] was 2.4 ± 0.4 %ID, the tissue uptake dose at 6 h [2, 7] was 1.7 ± 0.3 %ID and the tissue uptake dose at 24 h [2, 7] was 0.7 ± 0.1 %ID. It also gave a tissue uptake dose at 2 h [2, 8] of 3.1 ± 1.9 %ID, a tissue uptake dose at 4 h [2, 8] of 2.1 ± 0.9 %ID and a tissue uptake dose at 6 h [2, 8] of 1.6 ± 0.5 %ID. It also gave a tissue uptake dose at 24 h [2, 8] of 0.9 ± 0.2 %ID, a tissue uptake dose at 2 h ([2]; 40 ug, total radioactivity, Uptake in Liver (decay-corrected)) of 3 ± 1.6 %ID and a tissue uptake dose at 2 h [2, 9] of 4.2 ± 1.6 %ID. It also gave a tissue uptake dose at 4 h [2, 9] of 2.8 ± 1.1 %ID, a tissue uptake dose at 6 h [2, 9] of 2.1 ± 0.7 %ID and a tissue uptake dose at 24 h [2, 9] of 1.4 ± 0.3 %ID. For the same compound, the tissue uptake dose at 2 h [2, 10] was 3.3 ± 0.9 %ID, the tissue uptake dose at 4 h [2, 10] was 2.2 ± 0.8 %ID and the tissue uptake dose at 6 h [2, 10] was 1.4 ± 0.7 %ID. It also gave a tissue uptake dose at 24 h [2, 10] of 0.7 ± 0.3 %ID, a tissue uptake dose at 2 h [2, 11] of 5.9 ± 1.6 %ID and a tissue uptake dose at 4 h [2, 11] of 4.1 ± 1.6 %ID. For the same compound, the tissue uptake dose at 6 h [2, 11] was 2.8 ± 1.2 %ID, the tissue uptake dose at 24 h [2, 11] was 0.9 ± 0.4 %ID and the tissue uptake dose at 2 h [2, 12] was 1.2 ± 0.3 %ID. For the same compound, the tissue uptake dose at 4 h [2, 12] was 0.8 ± 0.3 %ID, the tissue uptake dose at 6 h [2, 12] was 0.6 ± 0.3 %ID and the tissue uptake dose at 24 h [2, 12] was 0.2 ± 0.1 %ID. For the same compound, the tissue uptake dose at 2 h [2, 13] was 6.2 ± 1.9 %ID, the tissue uptake dose at 4 h [2, 13] was 3.4 ± 1.7 %ID and the tissue uptake dose at 6 h [2, 13] was 2.7 ± 1.2 %ID. The tissue uptake dose at 24 h [2, 13] was 0.8 ± 0.4 %ID, the tissue uptake dose at 2 h [2, 14] was 5.1 ± 2.1 %ID and the tissue uptake dose at 4 h [2, 14] was 2.8 ± 0.9 %ID. The tissue uptake dose at 6 h [2, 14] was 2.2 ± 0.9 %ID, the tissue uptake dose at 24 h [2, 14] was 1.2 ± 0.8 %ID and the tissue uptake dose at 2 h [2, 15] was 3.4 ± 1.1 %ID. For the same compound, the tissue uptake dose at 4 h [2, 15] was 2.2 ± 0.6 %ID, the tissue uptake dose at 6 h [2, 15] was 1.6 ± 0.6 %ID and the tissue uptake dose at 24 h [2, 15] was 0.7 ± 0.4 %ID. It also gave a tissue uptake dose at 2 h [2, 16] of 2.2 ± 0.9 %ID, a tissue uptake dose at 4 h [2, 16] of 1.5 ± 0.7 %ID and a tissue uptake dose at 6 h [2, 16] of 1.1 ± 0.5 %ID. It also gave a tissue uptake dose at 24 h [2, 16] of 0.5 ± 0.2 %ID, a tissue uptake dose at 2 h [2, 17] of 3.5 ± 1.3 %ID and a tissue uptake dose at 4 h [2, 17] of 2 ± 1 %ID. For the same compound, the tissue uptake dose at 6 h [2, 17] was 1.6 ± 0.7 %ID, the tissue uptake dose at 24 h [2, 17] was 0.6 ± 0.2 %ID and the tissue uptake dose at 2 h [2, 18] was 0.8 ± 0.2 %ID. For the same compound, the tissue uptake dose at 4 h [2, 18] was 0.5 ± 0.1 %ID, the tissue uptake dose at 6 h [2, 18] was 0.34 ± 0.09 %ID and the tissue uptake dose at 24 h [2, 18] was 0.15 ± 0.06 %ID. For the same compound, the tissue uptake dose at 2 h [2, 19] was 3.5 ± 1.1 %ID, the tissue uptake dose at 4 h [2, 19] was 2 ± 0.8 %ID and the tissue uptake dose at 6 h [2, 19] was 1.3 ± 0.5 %ID. For the same compound, the tissue uptake dose at 24 h [2, 19] was 0.6 ± 0.2 %ID, the tissue uptake dose at 2 h [2, 20] was 3.5 ± 1.6 %ID and the tissue uptake dose at 4 h [2, 20] was 2.2 ± 1 %ID. For the same compound, the tissue uptake dose at 6 h [2, 20] was 1.7 ± 0.8 %ID, the tissue uptake dose at 24 h [2, 20] was 1.1 ± 0.4 %ID and the tissue uptake dose at 2 h [2, 21] was 3.3 ± 1 %ID. For the same compound, the tissue uptake dose at 4 h [2, 21] was 2.1 ± 0.7 %ID, the tissue uptake dose at 6 h [2, 21] was 1.8 ± 0.6 %ID and the tissue uptake dose at 24 h [2, 21] was 1.1 ± 0.4 %ID. For the same compound, the Route of elimination [2] was “predominantly via the kidneys”.
In the case of [^18F]FDG, the “Absorbed dose after injection for visualization of breast cancer” value [3] is given as 2.5–4.3 mSv.
